Like-named read-outs stand apart in the source and are kept apart here. Marks after values point to notes of the source that are not given here.
Tests used:
[1] = system: alcohol dehydrogenase from Brevibacterium sp KU; settings: oxidation of alcohols; activity of 2-phenylethanol taken as 100%; cited from earlier work
[2] = system: alcohol dehydrogenase from Brevibacterium sp KU 1309; settings: reduction of carbonyl compounds; cited from earlier work
[3] = target: T1, L(+)-lactate dehydrogenase from A. eutrophus (R. eutropha ldhA) (Cupriavidus necator, UniProt Q07251); settings: compared with that on pyruvate; cited from earlier work
T1 sequence (Q07251 1-349): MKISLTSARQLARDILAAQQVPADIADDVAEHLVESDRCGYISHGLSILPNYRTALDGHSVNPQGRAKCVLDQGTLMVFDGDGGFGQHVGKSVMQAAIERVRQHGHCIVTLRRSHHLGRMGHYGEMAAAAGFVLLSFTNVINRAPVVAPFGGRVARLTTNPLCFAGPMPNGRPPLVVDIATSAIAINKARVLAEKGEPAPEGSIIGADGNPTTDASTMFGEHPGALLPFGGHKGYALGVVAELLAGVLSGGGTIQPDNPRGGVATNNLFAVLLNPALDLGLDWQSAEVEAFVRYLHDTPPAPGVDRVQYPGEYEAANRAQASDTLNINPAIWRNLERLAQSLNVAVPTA

[4] = cytoplasmic pH, typically 7.4; cited from earlier work
[5] = system: cytochrome oxidases from E. coli; settings: cited from earlier work; for Km: read-out: Km for O2
[6] = system: NADH dehydrogenases and cytochrome oxidases; settings: aerobic growth, from Noguchi et al., 2004, cited from earlier work
[7] = system: 1,4-butanediol pathway
Protocol: Ten mL micro-aerobic cultures were started by inoculating fresh minimal in vivo conversion medium (see below) containing the appropriate antibiotics with 1% of the first cultures.
Microaerobic conditions were established by initially flushing capped anaerobic bottles with nitrogen for 5 minutes, then piercing the septum with an 18G needle following inoculation. The needle was kept in the bottle during growth to allow a small amount of air to enter the bottles. Protein expression was induced with 0.2 mM IPTG when the culture reached mid-log growth phase. This is considered: time=0 hr.

[8] = target: T2, endogenous alcohol dehydrogenase (yjgB) (Escherichia coli, UniProt P27250); settings: purified protein, in the presence of NADP+; FIG. 85
T2 sequence (P27250 1-339): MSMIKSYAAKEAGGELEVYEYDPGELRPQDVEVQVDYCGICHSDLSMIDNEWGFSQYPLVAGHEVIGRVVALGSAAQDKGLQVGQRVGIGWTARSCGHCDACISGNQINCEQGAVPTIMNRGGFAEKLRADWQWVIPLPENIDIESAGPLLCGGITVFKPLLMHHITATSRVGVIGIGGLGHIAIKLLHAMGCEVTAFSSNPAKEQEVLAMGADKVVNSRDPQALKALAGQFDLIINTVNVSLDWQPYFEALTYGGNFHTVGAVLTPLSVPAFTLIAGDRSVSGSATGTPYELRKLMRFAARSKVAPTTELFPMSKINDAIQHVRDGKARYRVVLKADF
Protocol: The sample was purified while following the backflux activity.
A fresh sample of 1427 cells from a 2 L LB preparation grown aerobically overnight was lysed using the microfluidizer at 15,000 psi. The sample was then fractionated via ammonium sulfate.
The 60% ammonium sulfate pellet was resuspended in a low salt buffer and dialyzed overnight to remove the residual ammonium sulfate. The sample was loaded onto a 5 ml Q-sepharose column (strong anion exchange) and eluted via a slow increasing salt gradient.
The peak backflux activity from anion exchange was pooled and concentrated to allow for application to a S200 sephacryl size exclusion column.
The peak with the highest backflux activity from the size exclusion column was pooled and loaded on a phenyl sepharose column (hydrophobic interaction column). The ionic strength of the sample was increased to facilitate binding to the resin.

[9] = host strain ECKh-432 with pZS*13S plasmid, culture supernatant, micro-aerobic

CC(O)c1ccccc1 (stereo not drawn) [1-Phenylethanol]
Relative Activity [1]: 46 0%

CC(C=O)c1ccccc1 (stereo not drawn) [2-Phenylpropionaldehyde]
Km [2]: 864 µM

CCC(C)C(=O)C(=O)O (stereo not drawn) [3-Methyl-2-oxovalerate]
Activity (%) of L(+)-lactate dehydrogenase from A. eutrophus [3]: 5.3%

CC(C)CC(=O)C(=O)O [4-Methyl-2-oxopentanoate]
Activity (%) of L(+)-lactate dehydrogenase from A. eutrophus [3]: 39.0%

C[C@@H](CO)c1ccccc1 [(R)-2-Phenylpropanol]
Relative Activity [1]: 63 0%

CCO [Ethanol]
Relative Activity [1]: 76 0%

O=C1CCCO1 [GBL, γ-butyrolactone]
lactone/hydroxyacid equilibrium [4]: hydrolysis of the GBL lactone is favored

O=CC(=O)O [Glyoxylate]
Activity (%) of L(+)-lactate dehydrogenase from A. eutrophus [3]: 8.7%

O=CCc1ccccc1 [Phenylacetaldehyde]
Km [2]: 261 µM

CCCCCCCCCCCCO [Sample 1-Dodecanol, 1-Dodecanol]
Relative Activity [1]: 68 0%

CC(C)O [Sample 2-Propanol, 2-Propanol]
Relative Activity [1]: 54 0%

cytochrome bd oxidase: E. coli cytochrome bd oxidase (cyd operon)
Km [5]: 0.01 µM

B1: cytochrome bo oxidase: E. coli cytochrome bo oxidase (cyo operon) (protein, UniProt P0ABJ1 25-315; P0ABI8 1-663; P0ABJ3 1-204; P0ABJ6 1-109, looked up)
Cytochrome bo(3) ubiquinol … 1: CNSALLDPKGQIGLEQRSLILTAFGLMLIVVIPAILMAVGFAWKYRASNKDAKYSPNWSHSNKVEAVVWTVPILIIIFLAVLTWKTTHALEPSKPLAHDEKPITIEVVSMDWKWFFIYPEQGIATVNEIAFPANTPVYFKVTSNSVMNSFFIPRLGSQIYAMAGMQTRLHLIANEPGTYDGISASYSGPGFSGMKFKAIATPDRAAFDQWVAKAKQSPNTMSDMAAFEKLAAPSEYNQVEYFSNVKPDLFADVINKFMAHGKSMDMTQPEGEHSAHEGMEGMDMSHAESAH
Cytochrome bo(3) ubiquinol … 2: MFGKLSLDAVPFHEPIVMVTIAGIILGGLALVGLITYFGKWTYLWKEWLTSVDHKRLGIMYIIVAIVMLLRGFADAIMMRSQQALASAGEAGFLPPHHYDQIFTAHGVIMIFFVAMPFVIGLMNLVVPLQIGARDVAFPFLNNLSFWFTVVGVILVNVSLGVGEFAQTGWLAYPPLSGIEYSPGVGVDYWIWSLQLSGIGTTLTGINFFVTILKMRAPGMTMFKMPVFTWASLCANVLIIASFPILTVTVALLTLDRYLGTHFFTNDMGGNMMMYINLIWAWGHPEVYILILPVFGVFSEIAATFSRKRLFGYTSLVWATVCITVLSFIVWLHHFFTMGAGANVNAFFGITTMIIAIPTGVKIFNWLFTMYQGRIVFHSAMLWTIGFIVTFSVGGMTGVLLAVPGADFVLHNSLFLIAHFHNVIIGGVVFGCFAGMTYWWPKAFGFKLNETWGKRAFWFWIIGFFVAFMPLYALGFMGMTRRLSQQIDPQFHTMLMIAASGAVLIALGILCLVIQMYVSIRDRDQNRDLTGDPWGGRTLEWATSSPPPFYNFAVVPHVHERDAFWEMKEKGEAYKKPDHYEEIHMPKNSGAGIVIAAFSTIFGFAMIWHIWWLAIVGFAGMIITWIVKSFDEDVDYYVPVAEIEKLENQHFDEITKAGLKNGN
Cytochrome bo(3) ubiquinol … 3: MATDTLTHATAHAHEHGHHDAGGTKIFGFWIYLMSDCILFSILFATYAVLVNGTAGGPTGKDIFELPFVLVETFLLLFSSITYGMAAIAMYKNNKSQVISWLALTWLFGAGFIGMEIYEFHHLIVNGMGPDRSGFLSAFFALVGTHGLHVTSGLIWMAVLMVQIARRGLTSTNRTRIMCLSLFWHFLDVVWICVFTVVYLMGAM
Cytochrome bo(3) ubiquinol … 4: MSHSTDHSGASHGSVKTYMTGFILSIILTVIPFWMVMTGAASPAVILGTILAMAVVQVLVHLVCFLHMNTKSDEGWNMTAFVFTVLIIAILVVGSIWIMWNLNYNMMMH
Km [5]: ~1 µM

B2: Cytochrome bo (protein, UniProt P0ABJ1 25-315; P0ABI8 1-663; P0ABJ3 1-204; P0ABJ6 1-109, looked up)
Cytochrome bo(3) ubiquinol … 1: B1 Cytochrome bo(3) ubiquinol … 1
Cytochrome bo(3) ubiquinol … 2: B1 Cytochrome bo(3) ubiquinol … 2
Cytochrome bo(3) ubiquinol … 3: B1 Cytochrome bo(3) ubiquinol … 3
Cytochrome bo(3) ubiquinol … 4: B1 Cytochrome bo(3) ubiquinol … 4
Vmax ([5]; from Bekker et al., 2009): 225^c mol O/mol cytochrome bd/s

B3: NDH-2 (protein, UniProt P00393 2-434, looked up)
Type II NADH:quinone …: TTPLKKIVIVGGGAGGLEMATQLGHKLGRKKKAKITLVDRNHSHLWKPLLHEVATGSLDEGVDALSYLAHARNHGFQFQLGSVIDIDREAKTITIAELRDEKGELLVPERKIAYDTLVMALGSTSNDFNTPGVKENCIFLDNPHQARRFHQEMLNLFLKYSANLGANGKVNIAIVGGGATGVELSAELHNAVKQLHSYGYKGLTNEALNVTLVEAGERILPALPPRISAAAHNELTKLGVRVLTQTMVTSADEGGLHTKDGEYIEADLMVWAAGIKAPDFLKDIGGLETNRINQLVVEPTLQTTRDPDIYAIGDCASCPRPEGGFVPPRAQAAHQMATCAMNNILAQMNGKPLKNYQYKDHGSLVSLSNFSTVGSLMGNLTRGSMMIEGRIARFVYISLYRMHQIALHGYFKTGLMMLVGSINRVIRPRLKLH
Concentrations of NADH dehydrogenases and cytochrome oxidase ([6]; Limited glucose (early stationary)): 0.70 ± 0.03 μmol/s/mg of protein
Concentrations of NADH dehydrogenases and cytochrome oxidase ([6]; Standard glucose (early stationary: 8 h)): 0.88 ± 0.01 μmol/s/mg of protein
Concentrations of NADH dehydrogenases and cytochrome oxidase ([6]; Standard glucose (exponential: 3 h)): 1.11 ± 0.06 μmol/s/mg of protein
Concentrations of NADH dehydrogenases and cytochrome oxidase ([6]; Standard glucose (exponential: 5 h)): 0.86 ± 0.03 μmol/s/mg of protein

B4: GNM_720: car gene, carboxylic acid reductase from Nocardia iowensis (protein, listed as Nocardia iowensis)
chain: MAVDSPDERLQRRIAQLFAEDEQVKAARPLEAVSAAVSAPGMRLAQIAATVMAGYADRPAAGQRAFELNTDDATGRTSLRLLPRFETITYRELWQRVGEVAAAWHHDPENPLRAGDFVALLGFTSIDYATLDLADIHLGAVTVPLQASAAVSQLIAILTETSPRLLASTPEHLDAAVECLLAGTTPERLVVFDYHPEDDDQRAAFESARRRLADAGSLVIVETLDAVRARGRDLPAAPLFVPDTDDDPLALLIYTSGSTGTPKGAMYTNRLAATMWQGNSMLQGNSQRVGINLNYMPMSHIAGRISLFGVLARGGTAYFAAKSDMSTLFEDIGLVRPTEIFFVPRVCDMVFQRYQSELDRRSVAGADLDTLDREVKADLRQNYLGGRFLVAVVGSAPLAAEMKTFMESVLDLPLHDGYGSTEAGASVLLDNQIQRPPVLDYKLVDVPELGYFRTDRPHPRGELLLKAETTIPGYYKRPEVTAEIFDEDGFYKTGDIVAELEHDRLVYVDRRNNVLKLSQGEFVTVAHLEAVFASSPLIRQIFIYGSSERSYLLAVIVPTDDALRGRDTATLKSALAESIQRIAKDANLQPYEIPRDFLIETEPFTIANGLLSGIAKLLRPNLKERYGAQLEQMYTDLATGQADELLALRREAADLPVLETVSRAAKAMLGVASADMRPDAHFTDLGGDSLSALSFSNLLHEIFGVEVPVGVVVSPANELRDLANYIEAERNSGAKRPTFTSVHGGGSEIRAADLTLDKFIDARTLAAADSIPHAPVPAQTVLLTGANGYLGRFLCLEWLERLDKTGGTLICVVRGSDAAAARKRLDSAFDSGDPGLLEHYQQLAARTLEVLAGDIGDPNLGLDDATWQRLAETVDLIVHPAALVNHVLPYTQLFGPNVVGTAEIVRLAITARRKPVTYLSTVGVADQVDPAEYQEDSDVREMSAVRVVRESYANGYGNSKWAGEVLLREAHDLCGLPVAVFRSDMILAHSRYAGQLNVQDVFTRLILSLVATGIAPYSFYRTDADGNRQRAHYDGLPADFTAAAITALGIQATEGFRTYDVLNPYDDGISLDEFVDWLVESGHPIQRITDYSDWFHRFETAIRALPEKQRQASVLPLLDAYRNPCPAVRGAILPAKEFQAAVQTAKIGPEQDIPHLSAPLIDKYVSDLELLQLL
BDO formation in ECKh-432 [7]: required for BDO formation
ETOHEnz (ethanol) [7, 9]: >LLOQ
GBL (gamma-butyrolactone) [7, 9]: 0.07 mM
LA (lactate) [7, 9]: 0.10 mM
SA (succinate) [7, 9]: 0.00 mM

B5: yjgB: E. coli alcohol dehydrogenase yjgB, cloned with a streptavidin tag and purified (protein, UniProt P27250 1-339, looked up)
Aldehyde reductase Ahr: T2 sequence (P27250 1-339)
modifications: streptavidin tag
activity with BDO as a substrate [8]: robust activity was confirmed
